No end group written: not given here. *: point of attachment. Biotin = O=C1N[C@H]2[C@H](CS[C@H]2CCCCC(=O)*)N1
What was measured:
Test in all cases: G assays, titrations or binding assays of peptides
PAR3 d3 = biological target: T1, PAR3 d3 (Homo sapiens, UniProt Q8TEW0, R682S); settings: peptide demonstrated to bind PAR3 d3 in G assays
T1 construct: made in house; host or cells: E. coli (DH5α, BL21 or JM109)
Protocol: (§1) In one aspect, the invention provides an assay in which a GST/PDZ fusion protein is immobilized on a surface (G assay). […] In a preferred embodiment, the assay is carried out as follows:
(§2) (1) A PDZ-domain polypeptide is bound to a surface, e.g. a protein binding surface. In a preferred embodiment, a GST/PDZ fusion protein containing one or more PDZ domains is bound to a polystyrene 96-well plate. […] In one embodiment, the GST/PDZ fusion protein is bound via an anti-GST antibody that is coated onto the 96-well plate. Adequate binding to the plate can be achieved when: • a. 100 μl per well of 5 μg/ml goat anti-GST polyclonal antibody (Pierce) in PBS is added to a polystyrene 96-well plate (e.g., Nunc Polysorp) at 4° C. for 12 hours. • b. The plate is blocked by addition of 200 μl per well of PBS/BSA for 2 hours at 4° C. • c. The plate is washed 3 times with PBS. • d. 50 μl per well of 5 μg/ml GST/PDZ fusion protein) or, as a negative control, GST polypeptide alone (i.e. not a fusion protein) in PBS/BSA is added to the plate for 2 hours at 4° C. • e. the plate is again washed 3 times with PBS.
(§3) (2) Biotinylated PL peptides are allowed to react with the surface by addition of 50 μl per well of 20 μM solution of the biotinylated peptide in PBS/BSA for 10 minutes at 4° C., followed by an additional 20 minute incubation at 25° C. The plate is washed 3 times with ice cold PBS.
(§4) (3) The binding of the biotinylated peptide to the GST/PDZ fusion protein surface can be detected using a variety of methods and detectors known to one of skill in the art. In one embodiment, 100 μl per well of 0.5 μg/ml streptavidin-horseradish peroxidase (HRP) conjugate dissolved in BSA/PBS is added and allowed to react for 20 minutes at 4° C. The plate is then washed 5 times with 50 mM Tris pH 8.0 containing 0.2% Tween 20, and developed by addition of 100 μl per well of HRP-substrate solution (TMB, Dako) for 20 minutes at room temperature (RT). The reaction of the HRP and its substrate is terminated by addition of 100 μl per well of 1 M sulfuric acid, and the optical density (O.D.) of each well of the plate is read at 450 um.
(§5) (4) Specific binding of a PL peptide and a PDZ domain polypeptide is determined by comparing the signal from the well(s) in which the PL peptide and PDZ domain polypeptide are combined, with the background signal(s). […] Typically a specific or selective reaction will be at least twice background signal, more typically more than 5 times background, and most typically 10 or more times the background signal. […] Correspondingly, a statistical test (e.g. a T-test) comparing repeated measurements of the signal with repeated measurements of the background will result in a p-value <0.05, more typically a p-value <0.01, and most typically a p-value <0.001 or less. As noted, in an embodiment of the G assay, the signal from binding of a given PL peptide to immobilized (surface bound) GST polypeptide alone is one suitable negative control (sometimes referred to as B1). Because all measurement are done in multiples (i.e. at least duplicate) the arithmetic mean (or, equivalently, average.) of several measurements is used in determining the binding, and the standard error of the mean is used in determining the probable error in the measurement of the binding. The standard error of the mean of N measurements equals the square root of the following: the sum of the squares of the difference between each measurement and the mean, divided by the product of (N) and (N−1). Thus, in one embodiment, specific binding of the PDZ protein to the platebound peptide is determined by comparing the mean signal (“mean S”) and standard error of the signal (“SE”) for a particular PL-PDZ combination with the mean B1.

RIM2 d1 = biological target: T2, RIM2 d1 (Homo sapiens, UniProt Q9UQ26); settings: peptide demonstrated to bind RIM2 d1 in G assays
T2 construct: made in house; host or cells: E. coli (DH5α, BL21 or JM109)
T2 sequence (Q9UQ26 632-757): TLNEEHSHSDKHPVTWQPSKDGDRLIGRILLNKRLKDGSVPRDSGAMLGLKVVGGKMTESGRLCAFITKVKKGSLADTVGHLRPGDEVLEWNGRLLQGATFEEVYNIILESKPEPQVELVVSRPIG
Protocol: as §1, §2, §3, §4, §5

ZO-1 d2 = biological target: T3, ZO-1 d2 (Homo sapiens, UniProt Q07157, DEL264-264); settings: peptide demonstrated to bind ZO-1 d2 in G assays
T3 construct: made in house; host or cells: E. coli (DH5α, BL21 or JM109)
T3 sequence (Q07157 with tags, fused parts or gaps DEL264-264): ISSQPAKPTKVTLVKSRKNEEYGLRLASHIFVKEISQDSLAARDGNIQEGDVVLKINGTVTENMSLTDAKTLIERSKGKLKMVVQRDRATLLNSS
Protocol: as §1, §2, §3, §4, §5

INADL d3 = biological target: T4, INADL d3 (Homo sapiens, UniProt Q8NI35); settings: peptide demonstrated to bind INADL d3 in G assays
T4 construct: made in house; host or cells: E. coli (DH5α, BL21 or JM109)
T4 sequence (Q8NI35 with tags, fused parts or gaps): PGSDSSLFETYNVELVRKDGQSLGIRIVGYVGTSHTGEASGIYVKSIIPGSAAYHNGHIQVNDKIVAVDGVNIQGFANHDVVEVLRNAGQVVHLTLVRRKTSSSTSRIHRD
Protocol: as §1, §2, §3, §4, §5

T1 sequence (Q8TEW0 with tags, fused parts or gaps R682S): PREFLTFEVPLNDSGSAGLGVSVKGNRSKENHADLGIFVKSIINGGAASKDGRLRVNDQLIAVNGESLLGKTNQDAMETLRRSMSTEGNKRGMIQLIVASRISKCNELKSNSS

QGDPALQDAGDSSRKEYFI (Biotin-QGDPALQDAGDSSRKEYFI)
POZ domain bound (PAR3 d3): PAR3 D3

YGRKKRRQRRRQDEEETIWA (Biotin-YGRKKRRQRRRQDEEETIWA)
POZ domain bound (RIM2 d1): RIM2 D1

KTMPAAMFRLLTGQETPLYI (Biotin-KTMPAAMFRLLTGQETPLYI)
POZ domain bound (PAR3 d3): PAR3 D3

YGRKKRRQRRRARGDRKRWA (Biotin-YGRKKRRQRRRARGDRKRWA)
POZ domain bound (ZO-1 d2): ZO-1 D2
POZ domain bound (RIM2 d1): RIM2 D1

YGRKKRRQRRRQDEEEGIWA (Biotin-YGRKKRRQRRRQDEEEGIWA)
POZ domain bound (ZO-1 d2): ZO-1 D2
POZ domain bound (RIM2 d1): RIM2 D1

KHSRKSSSYSSSSTTVKTSY (Biotin-KHSRKSSSYSSSSTTVKTSY)
POZ domain bound (ZO-1 d2): ZO-1 D2
POZ domain bound (PAR3 d3): PAR3 D3
POZ domain bound (RIM2 d1): RIM2 D1
POZ domain bound (INADL d3): INADL D3

YGRKKRRQRRRLQRRRETQV (Biotin-YGRKKRRQRRRLQRRRETQV)
POZ domain bound (RIM2 d1): RIM2 D1

YGRKKRRQRRRARGDRRRIV (Biotin-YGRKKRRQRRRARGDRRRIV)
POZ domain bound (RIM2 d1): RIM2 D1

YGRKKRRQRRRARGDRKRIV
POZ domain bound (ZO-1 d2): ZO-1 D2
POZ domain bound (RIM2 d1): RIM2 D1

YGRKKRRQRRRSEGVPDLLV
POZ domain bound (ZO-1 d2): ZO-1 D2
POZ domain bound (PAR3 d3): PAR3 D3

YGRKKRRQRRRARSDRKRIV (Biotin-YGRKKRRQRRRARSDRKRIV)
POZ domain bound (RIM2 d1): RIM2 D1

RRRRRRRGTNPAVAATSANL (Biotin-RRRRRRRGTNPAVAATSANL)
POZ domain bound (ZO-1 d2): ZO-1 D2

LASKSAEEGKQIPDSLSTDL (Biotin-LASKSAEEGKQIPDSLSTDL)
POZ domain bound (PAR3 d3): PAR3 D3
POZ domain bound (INADL d3): INADL D3

YVYSRVKNLNSSEGVPDLLV
POZ domain bound (ZO-1 d2): ZO-1 D2

RSGATIPLVGQDIIDLQTEV (Biotin-RSGATIPLVGQDIIDLQTEV)
POZ domain bound (INADL d3): INADL D3

VDPNSPAAKKKYVSYNNLVI (Biotin-VDPNSPAAKKKYVSYNNLVI)
POZ domain bound (ZO-1 d2): ZO-1 D2
POZ domain bound (PAR3 d3): PAR3 D3
POZ domain bound (RIM2 d1): RIM2 D1
POZ domain bound (INADL d3): INADL D3

KTMPAAMYRLLTAQEQPVYI (Biotin-KTMPAAMYRLLTAQEQPVYI)
POZ domain bound (PAR3 d3): PAR3 D3

ENLELPVNPSSWSERISSV
POZ domain bound (INADL d3): INADL D3

YGRKKRRQRRRSVTSTSINL (Biotin-YGRKKRRQRRRSVTSTSINL)
POZ domain bound (RIM2 d1): RIM2 D1

YGRKKRRQRRRAVAATYSNL (Biotin-YGRKKRRQRRRAVAATYSNL)
POZ domain bound (ZO-1 d2): ZO-1 D2
POZ domain bound (RIM2 d1): RIM2 D1

YSATYSELEDPGEMSPPIDL (Biotin-YSATYSELEDPGEMSPPIDL)
POZ domain bound (INADL d3): INADL D3

KTMPAATYRLLTGQEQPVYL (Biotin-KTMPAATYRLLTGQEQPVYL)
POZ domain bound (PAR3 d3): PAR3 D3

YGRKKRRQRRREYLGLDVPV
POZ domain bound (ZO-1 d2): ZO-1 D2
POZ domain bound (PAR3 d3): PAR3 D3
POZ domain bound (RIM2 d1): RIM2 D1
POZ domain bound (INADL d3): INADL D3

YGRKKRRQRRRAVAATGIWA (Biotin-YGRKKRRQRRRAVAATGIWA)
POZ domain bound (RIM2 d1): RIM2 D1

HAMNAAPRAMENAPALRTSH (Biotin-HAMNAAPRAMENAPALRTSH)
POZ domain bound (INADL d3): INADL D3

YGRKKRRQRRRGASADSTQA
POZ domain bound (ZO-1 d2): ZO-1 D2
POZ domain bound (PAR3 d3): PAR3 D3
POZ domain bound (RIM2 d1): RIM2 D1

RRRRRRRGNTTDKELEVLSL (Biotin-RRRRRRRGNTTDKELEVLSL)
POZ domain bound (ZO-1 d2): ZO-1 D2

YGRKKRRQRRRARSDRGIWA (Biotin-YGRKKRRQRRRARSDRGIWA)
POZ domain bound (ZO-1 d2): ZO-1 D2
POZ domain bound (RIM2 d1): RIM2 D1

TTNNNPNSAVNIKKIFTDV (Biotin-TTNNNPNSAVNIKKIFTDV)
POZ domain bound (ZO-1 d2): ZO-1 D2
POZ domain bound (INADL d3): INADL D3

YGRKKRRQRRRARGDRKKIV (Biotin-YGRKKRRQRRRARGDRKKIV)
POZ domain bound (RIM2 d1): RIM2 D1

SSSRRDSSWSETSEASYSGL (Biotin-SSSRRDSSWSETSEASYSGL)
POZ domain bound (ZO-1 d2): ZO-1 D2
POZ domain bound (RIM2 d1): RIM2 D1

YGRKKRRQRRRQDERVETRV (Biotin-YGRKKRRQRRRQDERVETRV)
POZ domain bound (RIM2 d1): RIM2 D1

NYKLNTDHAGSNDNIALLVQ
POZ domain bound (ZO-1 d2): ZO-1 D2
POZ domain bound (RIM2 d1): RIM2 D1

PGQPPKVKSEFNSYSLTGYV (Biotin-PGQPPKVKSEFNSYSLTGYV)
POZ domain bound (PAR3 d3): PAR3 D3
POZ domain bound (INADL d3): INADL D3

YGRKKRRQRRRARGDVRLML (Biotin-YGRKKRRQRRRARGDVRLML)
POZ domain bound (RIM2 d1): RIM2 D1

ELLQFCRTPNPALKNGQYWV (Biotin-ELLQFCRTPNPALKNGQYWV)
POZ domain bound (ZO-1 d2): ZO-1 D2
POZ domain bound (PAR3 d3): PAR3 D3
POZ domain bound (INADL d3): INADL D3

YGRKKRRQRRRSRTVREIWA (Biotin-YGRKKRRQRRRSRTVREIWA)
POZ domain bound (RIM2 d1): RIM2 D1

YGRKKRRQRRRARSDRKRIA (Biotin-YGRKKRRQRRRARSDRKRIA)
POZ domain bound (RIM2 d1): RIM2 D1

KAGYRAPRSYPKSNSSKEYV (Biotin-KAGYRAPRSYPKSNSSKEYV)
POZ domain bound (PAR3 d3): PAR3 D3

FHSKTAGANTTDKELEVLSL (Biotin-FHSKTAGANTTDKELEVLSL)
POZ domain bound (ZO-1 d2): ZO-1 D2
POZ domain bound (PAR3 d3): PAR3 D3
POZ domain bound (RIM2 d1): RIM2 D1
POZ domain bound (INADL d3): INADL D3

YGRKKRRQRRRARGDRLEIV (Biotin-YGRKKRRQRRRARGDRLEIV)
POZ domain bound (RIM2 d1): RIM2 D1

VPSDNIDSQGRNASTNDSLL (Biotin-VPSDNIDSQGRNASTNDSLL)
POZ domain bound (INADL d3): INADL D3

SSPDSSYQGKGFVMSRAMYV (Biotin-SSPDSSYQGKGFVMSRAMYV)
POZ domain bound (PAR3 d3): PAR3 D3

PSSRASSRASSRPRPDDLEI (Biotin-PSSRASSRASSRPRPDDLEI)
POZ domain bound (ZO-1 d2): ZO-1 D2

DGGARTEDEVQSYPSKHDYV (Biotin-DGGARTEDEVQSYPSKHDYV)
POZ domain bound (PAR3 d3): PAR3 D3

YGRKKRRQRRRAVAATSANL
POZ domain bound (ZO-1 d2): ZO-1 D2
POZ domain bound (PAR3 d3): PAR3 D3
POZ domain bound (RIM2 d1): RIM2 D1
POZ domain bound (INADL d3): INADL D3

YGRKKRRQRRRARGDRKRWL (Biotin-YGRKKRRQRRRARGDRKRWL)
POZ domain bound (ZO-1 d2): ZO-1 D2
POZ domain bound (RIM2 d1): RIM2 D1

TEGNESSEATSPVNAIYSLA (Biotin-TEGNESSEATSPVNAIYSLA)
POZ domain bound (ZO-1 d2): ZO-1 D2

YGRKKRRQRRRQDEEEGIWS (Biotin-YGRKKRRQRRRQDEEEGIWS)
POZ domain bound (RIM2 d1): RIM2 D1

YGRKKRRQRRRGMTSSSSVV (Biotin-YGRKKRRQRRRGMTSSSSVV)
POZ domain bound (RIM2 d1): RIM2 D1

YGRKKRRQRRRAVAAASANL (Biotin-YGRKKRRQRRRAVAAASANL)
POZ domain bound (ZO-1 d2): ZO-1 D2
POZ domain bound (RIM2 d1): RIM2 D1

LQFHRGSRAQSFLQTETSVI (Biotin-LQFHRGSRAQSFLQTETSVI)
POZ domain bound (PAR3 d3): PAR3 D3
POZ domain bound (INADL d3): INADL D3

LERTSSVSPSTAEPELSIVF (Biotin-LERTSSVSPSTAEPELSIVF)
POZ domain bound (PAR3 d3): PAR3 D3

YGRKKRRQRRRDKELEVLSL
POZ domain bound (ZO-1 d2): ZO-1 D2

KYSAPRRPTATGDYDKKNYV (Biotin-KYSAPRRPTATGDYDKKNYV)
POZ domain bound (PAR3 d3): PAR3 D3

STDNLVRPFMDTLASHQLYI (Biotin-STDNLVRPFMDTLASHQLYI)
POZ domain bound (PAR3 d3): PAR3 D3
POZ domain bound (INADL d3): INADL D3

LNSCSNRRVYKKMPSIESDV (Biotin-LNSCSNRRVYKKMPSIESDV)
POZ domain bound (ZO-1 d2): ZO-1 D2
POZ domain bound (INADL d3): INADL D3

SLIGPVQKEYQRELGKLSSP (Biotin-SLIGPVQKEYQRELGKLSSP)
POZ domain bound (INADL d3): INADL D3

Source: patent publication US7858322B2, “Method of determining inhibition of binding to TRPM7 protein” (NoNo, Inc., priority 2003, dated 2010)
